As a reminder, the Kd is the free concentration of one partner at which half of the binding sites on the other are occupied at equilibrium, for simple one-to-one binding.

Our source for the Kd values is the Immune Epitope Database (IEDB).

One experiment concerns the target HLA-B*53:01. Briefly: IEDB peptide-MHC binding, purified MHC/competitive/radioactivity; filed as Kd, often an IC50 or EC50 that approximates it; ≥ and ≤ were set here for values at or beyond the usual limits of such assays.
Another experiment has as its target HLA-B*07:02. Described as above.
Another experiment addresses HLA-B*51:01. The experiment is described as above.
A further experiment has as its target HLA-B*54:01. The experiment is described as above.
The next experiment addresses HLA-B*35:01. The experiment is described as above.
For a further experiment, the target named is HLA-A*68:02. Described as above.
In a further experiment the target is HLA-A*26:01. Described as above. To be noted: source organism: Dengue virus 4 Philippines/H241/1956.
In the next experiment the target is HLA-A*02:01. The description is as above.
The target of another experiment is HLA-A*02:06. The description is as above.
For another experiment, the target named is HLA-A*02:02. The experiment is described as above.
For a further experiment, the target named is HLA-A*02:03. The experiment is described as above.
The next experiment concerns the target HLA-B*18:01. Briefly: IEDB peptide-MHC binding, purified MHC/direct/fluorescence; filed as Kd, often an IC50 or EC50 that approximates it; ≥ and ≤ were set here for values at or beyond the usual limits of such assays.
Another experiment deals with HLA-B*44:02. The description is as above. Conditions: source organism: Influenza A virus (A/duck/Guangxi/1586/2004(H5N1)).
The target in the next experiment is HLA-B*40:01. Described as above. Conditions: source organism: Influenza A virus (A/duck/Guangxi/1586/2004(H5N1)).
Setting [1] is: source organism: Vaccinia virus WR.
[2] abbreviates: source organism: Mammarenavirus juninense.
The mark [3] stands for this setting: source organism: Dengue virus 4 Philippines/H241/1956.
[4] abbreviates: source organism: Triticum aestivum.
Where [5] appears, read: source organism: Trypanosoma cruzi.
Setting [6] is: source organism: Mammarenavirus lassaense.
The mark [7] stands for this setting: source organism: SARS coronavirus Tor2.
[8] abbreviates: source organism: Lassa virus Josiah.

Regarding DPPIPYSRV, the Kd was at least 31500 nM in the experiment with HLA-B*53:01 (setting [1]); at least 77500 nM with HLA-B*07:02 (setting [1]); 31 nM with HLA-B*51:01 (setting [1]); 320 nM in the experiment with HLA-B*54:01 (setting [1]); at least 53400 nM in the experiment with HLA-B*35:01 (setting [1]).

TPENFSSLI: the Kd in the experiment with HLA-B*53:01 (setting [2]) was 1320 nM; with HLA-B*07:02 (setting [2]), 8260 nM; in the experiment with HLA-B*51:01 (setting [2]), 1960 nM; in the experiment with HLA-B*54:01 (setting [2]), at least 78100 nM; with HLA-B*35:01 (setting [2]), at least 38700 nM.

As for LPNVQFVDI, the Kd is 65.2 nM in the experiment with HLA-B*53:01 (setting [1]); 2710 nM with HLA-B*07:02 (setting [1]); 32.2 nM with HLA-B*51:01 (setting [1]); 16.8 nM with HLA-B*54:01 (setting [1]); 234 nM in the experiment with HLA-B*35:01 (setting [1]).

In the case of HTIENTSANL, the Kd is 15 nM with HLA-A*68:02 (setting [3]) and at least 48900 nM with HLA-A*26:01.

With GIGILTVIL, the equilibrium dissociation constant (Kd) with HLA-A*02:01 (source organism: Homo sapiens) stood at 1000 nM.

On to APKQVAGTGV, for which the dissociation constant (Kd) with HLA-B*53:01 (setting [1]) is at least 69900 nM; in the experiment with HLA-B*07:02 (setting [1]), 10.9 nM; in the experiment with HLA-B*51:01 (setting [1]) it was at least 61000 nM; with HLA-B*54:01 (setting [1]) it was 266 nM; with HLA-B*35:01 (setting [1]), at least 69900 nM.

In the case of QLADETLLKV, the Kd turned out to be 61.4 nM in the experiment with HLA-A*02:06 (source organism: Homo sapiens), 14 nM with HLA-A*02:02 (source organism: Homo sapiens) and 11900 nM with HLA-A*68:02 (source organism: Homo sapiens).

For the sequence SQCQAIHNV, the dissociation constant Kd was 132 nM with HLA-A*02:06 (setting [4]); 972 nM with HLA-A*02:01 (setting [4]); 770 nM in the experiment with HLA-A*02:02 (setting [4]); 254 nM with HLA-A*02:03 (setting [4]); 5790 nM with HLA-A*68:02 (setting [4]).

Turning to GVLPLLLLYS, the Kd with HLA-A*02:06 (setting [5]) was determined as 14.9 nM; with HLA-A*02:01 (setting [5]) it was 2370 nM; with HLA-A*02:02 (setting [5]), 1300 nM; with HLA-A*02:03 (setting [5]), 673 nM; in the experiment with HLA-A*68:02 (setting [5]), 3560 nM.

In the case of CPFLFLTVL, the dissociation constant (Kd) in the experiment with HLA-B*53:01 (setting [6]) is 216 nM; in the experiment with HLA-B*07:02 (setting [6]), 99.5 nM; with HLA-B*51:01 (setting [6]) it was 746 nM; with HLA-B*54:01 (setting [6]) it was 160 nM; in the experiment with HLA-B*35:01 (setting [6]) it was 41.2 nM.

In the case of VPWSKILAY, the dissociation constant Kd with HLA-B*53:01 (setting [7]) came out at 7.08 nM; with HLA-B*07:02 (setting [7]), 447 nM; with HLA-B*51:01 (setting [7]) it was 90.5 nM; in the experiment with HLA-B*54:01 (setting [7]), 536 nM; with HLA-B*35:01 (setting [7]) it was 8.22 nM.

For the sequence EPSGNNYHI, the dissociation constant Kd with HLA-B*53:01 (setting [1]) is 20.3 nM; with HLA-B*07:02 (setting [1]), 1420 nM; in the experiment with HLA-B*51:01 (setting [1]), 692 nM; with HLA-B*54:01 (setting [1]), 1580 nM; with HLA-B*35:01 (setting [1]), at least 44300 nM.

Regarding DPLVIPFSF, the equilibrium dissociation constant (Kd) in the experiment with HLA-B*18:01 (source organism: Salmonella enterica subsp. enterica serovar Paratyphi A str. ATCC 9150) came to 3130 nM.

As to REILTKTTV, the dissociation constant Kd with HLA-B*44:02 was at least 47800 nM; with HLA-B*18:01 (source organism: Influenza A virus (A/duck/Guangxi/1586/2004(H5N1))), 358 nM; with HLA-B*40:01, 4.9 nM.

Regarding NVSIPWTHK, the equilibrium dissociation constant (Kd) in the experiment with HLA-A*02:01 (source organism: Hepatitis B virus subtype adw2) was at least 35000 nM.

Consider EVALLRTYCI, for which the Kd with HLA-A*68:02 (setting [3]) is 29.7 nM; with HLA-A*26:01 it was 6170 nM.

As to FLSHDFTLV, the Kd with HLA-A*02:06 (setting [5]) was determined as 0.765 nM; in the experiment with HLA-A*02:02 (setting [5]), 0.0619 nM; in the experiment with HLA-A*02:03 (setting [5]), 0.142 nM; in the experiment with HLA-A*68:02 (setting [5]) it was 636 nM.

Regarding SILRVGTLT, in the experiment with HLA-A*02:01 (setting [8]), the dissociation constant (Kd) is at least 25000 nM.

Turning to GITRPTTVV, the Kd in the experiment with HLA-A*02:06 (setting [5]) was 6130 nM; in the experiment with HLA-A*02:01 (setting [5]), at least 50700 nM; in the experiment with HLA-A*02:02 (setting [5]), 14000 nM; in the experiment with HLA-A*02:03 (setting [5]) it was 795 nM; with HLA-A*68:02 (setting [5]), 3150 nM.

AVSGGLNTSV: the Kd with HLA-A*02:01 (setting [8]) was at least 25000 nM.
